Test results: the domain aggregation screens of Martell et al. (2025)

Test: soluble fraction after stress (log2 fold change); higher = more stays soluble; pooled small domains, quantitative proteomics
Conditions: stress: 75 degC
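Also: 20 min heating vs room temperature control held 20 min.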

Row | Sequence | soluble fraction (log2)
1 | HMYYNDEELDGYRGTPSDAYSDNAVEEFREVLYTLREDEVSGWVRSLQLRGIFLPDAIKDETFLI | -1.33
2 | HMYYTAPDGRKREILDAALRLIAAGGPDSLTYRRVADEAGVPLGSLTYYFEAREDLIREAFRLYIAEASR | -3.16
